Three substances from patent US5871732 can be followed below.

Assay [1] concerns the target recombinant soluble CD4 (human CD4 AA1-AA375) (human) (UniProt P01730). In words: RIA, immobilised antibody; 125I-rsCD4 preincubated with the competitor HIV r-gp120 (2.5 µg/ml).
For assay [2] the target is unchanged. In words: RIA, immobilised antibody; 125I-rsCD4 preincubated with the soluble competitor OKT4.
For assay [3] the target is unchanged. Description: RIA, immobilised antibody; 125I-rsCD4 preincubated with the soluble competitor Leu3A.
The target in assay [4] is human CD4 displayed on the surface of CD4+ cells (human) (UniProt P01730).
Assay [5] concerns the target recombinant soluble CD4 (human CD4 AA1-AA375) (human) (UniProt P01730). In words: RIA, immobilised antibody; 125I-rsCD4 preincubated with the soluble competitor OKT4A.
Assay [6] concerns the target CD4-V1V2 polypeptide (AA1-AA180 of human CD4) (human) (UniProt P01730). In words: RIA, antibody captured on goat anti-mouse IgG; CD4-V1V2 (5 µg/ml) competing with 125I-rsCD4.
The target in assay [7] is recombinant soluble CD4 (human CD4 AA1-AA375) (human) (UniProt P01730). In words: RIA, 125I-rsCD4 preincubated with the soluble antibody; competitor: immobilised 5A8.
Assay [8] deals with CD4-V1 polypeptide (AA1-AA113 and/or AA1-AA111 of human CD4) (human) (UniProt P01730). In words: RIA, antibody captured on goat anti-mouse IgG; CD4-V1 (5 µg/ml) competing with 125I-rsCD4.
Assay [9] has as its target mouse/human substitution mutant of rsCD4 at AA240-AA252 (V3) (human) (UniProt P01730). Description: mutant rsCD4 (1 µg/ml) as competitor of OKT4 binding to CD4+ cells.
In assay [10] the target is mouse/human substitution mutant of rsCD4 at AA127-AA134 (V2) (human) (UniProt P01730). The description is as above.
The target of assay [11] is mouse/human substitution mutant of rsCD4 at AA220-AA226 (V3) (human) (UniProt P01730). Described as above.
Assay [12] addresses mouse/human substitution mutant of rsCD4 at AA60 (V1) (human) (UniProt P01730). Described as above.
Assay [13] deals with mouse/human substitution mutant of rsCD4 at AA121-AA124 (V2) (human) (UniProt P01730). Described as above.
The target in assay [14] is mouse/human substitution mutant of rsCD4 at AA165 (V2) (human) (UniProt P01730). Described as above.

With “Leu3A, CD4 V1-specific monoclonal antibody (Becton Dickinson)”, in [1], the HIV r-gp120 % Inhibition rsCD4 Binding came out at 85.1%. For the same substance, the % Inhibition rsCD4 Binding By OKT4 in assay [2] is -10.3%. Besides, in assay [3], the % Inhibition rsCD4 Binding By Leu 3A was 85.8%. Besides, the concentration inhibiting syncytia formation 50% in [4] was determined as 0.02 µg/mL. In addition, the % Inhibition rsCD4 Binding By OKT4A in assay [5] is 73.9%. In assay [6], this substance had a CD4-V1V2 % Inhibition of rsCD4 Binding of 94%. In [7], the % Inhibition rsCD4 Binding worked out at 0%. Also, the CD4-V1 % Inhibition of rsCD4 Binding in [8] is 88.2%.

With “OKT4, CD4 V3V4-specific anti-CD4 mouse monoclonal antibody (Ortho Diagnostic Systems)”, the HIV r-gp120 % Inhibition rsCD4 Binding in assay [1] is -8.2%. Besides, the % Inhibition rsCD4 Binding By OKT4 in assay [2] worked out at 91.3%. In addition, the % Inhibition rsCD4 Binding By Leu 3A in assay [3] was found to be 8.4%. Besides, the % Inhibition rsCD4 Binding By OKT4A in assay [5] came to 3.6%. Also, the % blocking of OKT4 binding to CD4+ cells in assay [9], in assay [10], in assay [11], in [12], in [13] and in assay [14] was 60% each time. This substance also gave a CD4-V1V2 % Inhibition of rsCD4 Binding in [6] of 14.4%. Further, the % Inhibition rsCD4 Binding in assay [7] was 4%. In [8], the CD4-V1 % Inhibition of rsCD4 Binding is -5.5%.

As for “OKT4A, CD4 V1-specific anti-CD4 mouse monoclonal antibody (Ortho Diagnostic Systems)”, the HIV r-gp120 % Inhibition rsCD4 Binding in [1] came out at 66.1%. The % Inhibition rsCD4 Binding By OKT4 in [2] was -26.8%. In assay [3], the % Inhibition rsCD4 Binding By Leu 3A was 62%. Further, the % Inhibition rsCD4 Binding By OKT4A in [5] came out at 68.5%. The CD4-V1V2 % Inhibition of rsCD4 Binding in assay [6] was determined as 95.5%. Besides, the CD4-V1 % Inhibition of rsCD4 Binding in assay [8] came out at 87.3%.
